Experimental data: patent CN112480258A (HUADAO SHANGHAI BIOMEDICAL CO LTD, dated 2021)
Numbering of substitutions follows the chain as printed.

T1: Human IL-3Rα/CD123蛋白 (human, UniProt P26951 19-305, limits assumed)
T1 construct: Soluble antigen in the SPR mobile phase
T1 sequence (looked up): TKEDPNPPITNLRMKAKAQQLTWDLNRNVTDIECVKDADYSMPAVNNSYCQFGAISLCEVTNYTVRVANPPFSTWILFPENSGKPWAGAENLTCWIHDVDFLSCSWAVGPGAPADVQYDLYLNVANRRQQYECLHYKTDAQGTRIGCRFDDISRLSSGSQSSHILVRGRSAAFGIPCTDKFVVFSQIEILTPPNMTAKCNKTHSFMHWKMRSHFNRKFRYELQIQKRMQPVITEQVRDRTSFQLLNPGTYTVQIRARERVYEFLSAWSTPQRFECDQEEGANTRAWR

B1: CD123-9 VHH-mIgG2a Fc纳米抗体 (Fc fusion)
chain: EVQLVESGGGLVQPGGSLRLSCAASGFTFSSYDMSWVRQAPGKGLEWVSHIKPGPVGTDYTDSVKGRFTISRDNAKNTLYLQMDSLKTEDTAVYYCARGSRYSWNLDGPLRGQGTQVTVSS
notes: also called 抗CD123 VHH抗体CD123-9; CD123-9抗体; not shown: mouse IgG2a Fc tag from vector C-4pCP.Stuffer-mCg2a-FC
B2: CD123-12 VHH-mIgG2a Fc纳米抗体 (Fc fusion)
chain: B1 chain with G10D
notes: also called 抗CD123 VHH抗体CD123-12; CD123-12抗体; not shown: mouse IgG2a Fc tag from vector C-4pCP.Stuffer-mCg2a-FC

Target: T1, Human IL-3Rα/CD123蛋白
Experiment: SPR (Biacore), antibody immobilised on the chip, antigen in the mobile phase

Binder | Kd [nM] | koff [s⁻¹] | kon [M⁻¹ s⁻¹]
B1 | 0.0466 | 1.42e-05 | 305000
B2 | 0.0551 | 1.62e-05 | 295000
